Source: PMC7893005

Assays:
[1] = molecular target: gelatin derived from type I collagen from rat tail (acetylated collagen denatured at 95 °C for 10 min) (rat) (UniProt P02454)
[2] = molecular target: acetylated, soluble type I collagen from rat tail, natively folded (triple-helical) (rat) (UniProt P02454)

Substance | KM of gelatin degradation (Michaelis-Menten kinetics, discontinuous cleavage assay with fluorescamine detection of neo-N-termini, 25 °C) [1] [µM] | KM of degradation of natively folded type I collagen (Michaelis-Menten kinetics, discontinuous cleavage assay with fluorescamine detection of neo-N-termini, 25 °C) [2] [µM]
ColG collagenase unit from Clostridium histolyticum (from UniProt Q9X721 119-789) (enzyme) | 1.35 | 3.4
ColQ1 collagenase unit (Y94-G765) from Bacillus cereus strain Q1 (from UniProt B9J3S4 94-765) (enzyme) | 1.36 | 1.72
